From paper PMC10076392, “Structure of the heterotrimeric membrane protein complex FtsB-FtsL-FtsQ of the bacterial divisome” (Nature Communications, 2023)

Biological target: T1, FtsW-FtsI complex, His-tagged (E. coli strain K12, UniProt P0ABG4 1-414; P0AD68 1-577)
T1 construct: FtsW, transglycosylase, E. coli strain K12 (ATCC10798D-5), amplified from the genome with primers W-F and W-R; also called FtsWI; His-tagged FtsWI; source: E. coli C43, co-expressed from pETduet-FtsWI, purified (Ni-NTA, Superdex-200) in DDM
T1 sequence (looked up) 1: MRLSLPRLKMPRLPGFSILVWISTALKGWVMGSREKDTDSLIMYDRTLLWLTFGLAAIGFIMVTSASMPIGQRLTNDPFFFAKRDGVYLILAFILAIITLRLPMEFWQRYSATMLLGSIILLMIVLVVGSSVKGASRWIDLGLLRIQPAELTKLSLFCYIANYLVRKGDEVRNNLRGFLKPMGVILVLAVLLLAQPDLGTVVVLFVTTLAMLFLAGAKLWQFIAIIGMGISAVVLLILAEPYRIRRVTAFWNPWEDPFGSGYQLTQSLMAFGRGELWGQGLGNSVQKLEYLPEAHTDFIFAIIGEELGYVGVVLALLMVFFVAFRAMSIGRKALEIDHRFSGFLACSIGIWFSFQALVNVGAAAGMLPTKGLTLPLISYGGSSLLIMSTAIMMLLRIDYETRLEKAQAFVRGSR
T1 sequence (looked up) 2: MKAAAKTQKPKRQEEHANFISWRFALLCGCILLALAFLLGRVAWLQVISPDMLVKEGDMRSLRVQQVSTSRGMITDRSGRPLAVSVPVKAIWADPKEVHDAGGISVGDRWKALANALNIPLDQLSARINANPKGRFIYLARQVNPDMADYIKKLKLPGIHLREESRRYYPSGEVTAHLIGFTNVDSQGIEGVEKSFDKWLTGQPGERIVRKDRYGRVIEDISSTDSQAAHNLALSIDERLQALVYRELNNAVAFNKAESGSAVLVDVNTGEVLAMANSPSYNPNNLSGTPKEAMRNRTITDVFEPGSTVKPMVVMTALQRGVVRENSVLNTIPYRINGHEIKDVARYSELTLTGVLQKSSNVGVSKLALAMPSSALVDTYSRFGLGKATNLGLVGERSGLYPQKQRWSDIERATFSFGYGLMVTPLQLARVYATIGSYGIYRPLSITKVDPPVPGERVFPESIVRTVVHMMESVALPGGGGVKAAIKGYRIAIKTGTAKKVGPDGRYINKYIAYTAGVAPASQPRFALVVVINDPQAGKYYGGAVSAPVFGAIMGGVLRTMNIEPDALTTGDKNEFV
Experiment: BLI; His-tagged protein loaded at 50 μg/ml on HIS1K (Anti-Penta-HIS) biosensors; analyte in threefold dilutions 0.016-4 µM; 200 mM NaCl, 20 mM HEPES pH7.5, 0.1% DDM; 240 sec association and dissociation; Octet HTX
Conditions: both partners purified

B1: PBP1b (aa58-804) (enzyme, E. coli strain K12, UniProt P02919 58-804, looked up)
chain: KPRGKRGWLWLLLKLAIVFAVLIAIYGVYLDQKIRSRIDGKVWQLPAAVYGRMVNLEPDMTISKNEMVKLLEATQYRQVSKMTRPGEFTVQANSIEMIRRPFDFPDSKEGQVRARLTFDGDHLATIVNMENNRQFGFFRLDPRLITMISSPNGEQRLFVPRSGFPDLLVDTLLATEDRHFYEHDGISLYSIGRAVLANLTAGRTVQGASTLTQQLVKNLFLSSERSYWRKANEAYMALIMDARYSKDRILELYMNEVYLGQSGDNEIRGFPLASLYYFGRPVEELSLDQQALLVGMVKGASIYNPWRNPKLALERRNLVLRLLQQQQIIDQELYDMLSARPLGVQPRGGVISPQPAFMQLVRQELQAKLGDKVKDLSGVKIFTTFDSVAQDAAEKAAVEGIPALKKQRKLSDLETAIVVVDRFSGEVRAMVGGSEPQFAGYNRAMQARRSIGSLAKPATYLTALSQPKIYRLNTWIADAPIALRQPNGQVWSPQNDDRRYSESGRVMLVDALTRSMNVPTVNLGMALGLPAVTETWIKLGVPKDQLHPVPAMLLGALNLTPIEVAQAFQTIASGGNRAPLSALRSVIAEDGKVLYQSFPQAERAVPAQAAYLTLWTMQQVVQRGTGRQLGAKYPNLHLAGKTGTTNNNVDTWFAGIDGSTVTITWVGRDNNQPTKLYGASGAMSIYQRYLANQTPTPLNLVPPEDIADMGVDYDGNFVCSGGMRILPVWTSDPQSLCQQSEMQQQPS
notes: PBP1b, bi-functional peptidoglycan synthase, E. coli strain K12 (ATCC10798D-5), residues 58-804; Analyte in BLI; source: E. coli C43, from pET15b-PBP1b, purified (Ni-NTA, Superdex-200) in DDM
  binding result: binds
